Laboratory results published in patent US20040229242, “Methods of capturing, detecting and quantifying RNA:DNA hybrids and a modified RNase H useful therein” (published 2004).
Where a chain is given by its changes, count along the chain named.

What was measured:
[1] = biological target: T1, E. coli RNase H1 D134A (nuclease-deficient parent) (Escherichia coli) (UniProt P0A7Y4); test: competition; conditions: 25 C
T1 sequence: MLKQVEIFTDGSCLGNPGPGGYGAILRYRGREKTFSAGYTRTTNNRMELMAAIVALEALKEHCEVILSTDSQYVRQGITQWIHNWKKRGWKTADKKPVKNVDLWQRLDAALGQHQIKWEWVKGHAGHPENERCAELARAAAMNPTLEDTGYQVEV

[2] = biological target: T2, RNase H1 D94G/D134A mutant (Escherichia coli, UniProt P0A7Y4 SEQ:1-155); test: competition; conditions: 25 C
T2 chain: T1 sequence with D94G

[3] = biological target: T3, E. coli RNase H1 D134A (nuclease-deficient parent) (Escherichia coli, UniProt P0A7Y4 SEQ:1-155); test: filter; 50 mM NaCl, 1 mM EDTA, HEPES pH 7.0, 25 C; conditions: label: 32P
T3 chain: T1 sequence

[4] = biological target: T2, RNase H1 D94G/D134A mutant; test: filter; 50 mM NaCl, 1 mM EDTA, HEPES pH 7.0, 25 C
[5] = biological target: T3, E. coli RNase H1 D134A …; test: FP filter; nitrocellulose filter binding; 50 mM NaCl, 1 mM EDTA, 20 mM HEPES pH 7.0, 25 C; conditions: label: 32P end label on DNA strand
Protocol: In the experiment, serial dilutions of the indicated RNase H proteins were individually incubated in 1×FB Buffer [100 μg/ml BSA; 50 mM NaCl; 1 mM EDTA; 20 mM HEPES, pH 7.0] with a radiolabeled RNA:DNA hybrid of the following sequence:
After 30 minutes incubation at 25° C., the 50 μl reactions were filtered quickly through buffer-equilibrated nitrocellulose filters and washed twice with 500 μl Wash Buffer [10% Glycerol, 50 mM NaCl; 1 mM EDTA; 20 mM HEPES, pH 7.0]. […] The amount of RNA:DNA hybrid retained by each filter was directly quantitated from the damp filters by Cerenkov counting. Each protein was tested in triplicate and the results averaged. Control filters to determine total input radioactivity were used to calculate the percent of total input hybrid bound. SDS-PAGE and densitometry re-confirmed protein concentrations.

[6] = competition vs RNA:DNA#1, filter binding
[7] = competition vs RNA:DNA#2, filter binding
[8] = competition vs RNA:DNA#3, filter binding

“heat-denatured sheared salmon sperm ssDNA” was tested, and the IC50 [1, 6] was 1.7 µM, the IC50 [1, 7] was 5.5 µM and the IC50 [1, 8] was 2.9 µM. The IC50 [2, 6] was 9 µM, the IC50 [2, 7] was 15 µM and the IC50 [2, 8] was 10 µM.

B1: RNA:DNA#3 (DNA:RNA)
RNA: AGUUCGACGAGCAUGGAGAGGUCAG
DNA: CTGACCTCTCCATGCTCGTCGAACT
B1 was tested, and the Kd [3] was 0.008 µM and the Kd ([4]; label: 32P) was 0.0055 µM.

B2: RNA:DNA#2 (DNA:RNA)
RNA: GGCGAACAGGACUGCGUAUGAUAGG
DNA: CCTATCATACGCAGTCCTGTTCGCC
Molecule B2 has a Kd [3] of 0.008 µM and a Kd ([4]; label: 32P) of 0.006 µM.

B3: RNA:DNA#1 (DNA:RNA)
RNA: GGACCGGAAAGGUACGAGCAUGUGA
DNA: TCACATGCTCGTACCTTTCCGGTCC
For B3, the Kd [5] was 0.01 µM and the Kd ([4]; label: 32P end label on DNA strand) was 0.0051 µM.
